Experimental findings from PMC11696143, “A higher order PUF complex is central to regulation of C. elegans germline stem cells” (Nature Communications, 2024) are described below.

Where “and” joins values, the source holds several entries; their conditions need not be identical. Identical values can stand only once.

The target of data set [1] is T1, C. elegans FBF-2 RBD+CT (residues 164-632) (C. elegans, UniProt Q09312 164-632).
T1 sequence (looked up): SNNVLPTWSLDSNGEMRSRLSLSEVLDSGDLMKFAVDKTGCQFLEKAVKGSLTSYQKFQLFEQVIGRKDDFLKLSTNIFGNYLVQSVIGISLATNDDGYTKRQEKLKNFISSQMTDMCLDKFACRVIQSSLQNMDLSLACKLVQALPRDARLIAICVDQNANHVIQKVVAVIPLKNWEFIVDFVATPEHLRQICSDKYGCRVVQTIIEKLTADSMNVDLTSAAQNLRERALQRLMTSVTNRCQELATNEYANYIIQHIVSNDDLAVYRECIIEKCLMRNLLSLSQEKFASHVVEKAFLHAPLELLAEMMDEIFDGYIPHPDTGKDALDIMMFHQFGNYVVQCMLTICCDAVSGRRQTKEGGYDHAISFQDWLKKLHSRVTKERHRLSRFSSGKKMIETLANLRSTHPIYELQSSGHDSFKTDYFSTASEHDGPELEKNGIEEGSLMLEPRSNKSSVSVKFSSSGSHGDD
As to the kind of experiment: cell-based or functional assay.

The target of data set [2] is T1, C. elegans FBF-2 RBD+CT (residues …). As to the kind of experiment: ITC; LST-1 variant (100-400 µM) titrated from the syringe into the cell with FBF-2 (10-30 µM); 20 °C; 20 mM HEPES pH 7.4, 150 mM NaCl, 0.5 mM TCEP; no RNA; one-site model; apparent constants; two technical replicates. Conditions: both partners purified.
Data set [3] addresses T2, C. elegans FBF-2 RBD (residues 164-575) (C. elegans, UniProt Q09312 164-575).
T2 construct: His-SUMO tag cleaved with TEV protease (the insert came from an earlier pGEX6p FBF-2 RBD construct); source: E. coli, purified as FBF-2 RBD+CT (Ni-NTA, heparin, Superdex 75); for SEC-MALS and cryo-EM coexpressed with GST-LST-1 19-98 in E. coli BL21-CodonPlus (DE3)-RIL and purified as a complex; not shown: His6-SUMO, N-terminal, cleaved
T2 sequence (looked up): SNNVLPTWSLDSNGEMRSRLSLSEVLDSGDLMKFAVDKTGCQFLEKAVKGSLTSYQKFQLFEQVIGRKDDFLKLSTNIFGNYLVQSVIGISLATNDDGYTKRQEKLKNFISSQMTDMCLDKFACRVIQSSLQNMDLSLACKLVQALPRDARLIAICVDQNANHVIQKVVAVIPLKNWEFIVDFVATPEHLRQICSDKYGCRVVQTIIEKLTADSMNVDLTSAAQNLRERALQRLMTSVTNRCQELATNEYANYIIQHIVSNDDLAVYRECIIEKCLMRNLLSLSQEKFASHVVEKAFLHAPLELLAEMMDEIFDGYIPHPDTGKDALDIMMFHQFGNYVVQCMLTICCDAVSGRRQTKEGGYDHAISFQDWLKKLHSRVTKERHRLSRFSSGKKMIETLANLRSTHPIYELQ
The data set is described as above. Conditions: both partners purified.

Data set [4] has as its target T1, C. elegans FBF-2 RBD+CT (residues …). Kind of data set: SEC-MALS; co-purified FBF-2 RBD+CT or RBD/LST-1 19-98 complex (~30 µM) with 29-nt gld-1 FBEa-FBEa* RNA on Superdex-200 10/300 GL; 20 mM HEPES pH 7.4, 150 mM NaCl, 2 mM DTT. Conditions: both partners purified.
Data set [5] has as its target T2, C. elegans FBF-2 RBD (residues 164-575). Described as above. Conditions: both partners purified.
Data set [6] has the same target. As to the kind of experiment: FRET or BRET; 2 µM unlabeled FBF-2 RBD pre-incubated with Cy5-labeled LST-1 19-98 (20, 40, 80 nM), then 20 nM 5'-Cy3 gld-1 FBEa-FBEa* RNA; room temperature; FRET from Cy3 on the RNA to Cy5 on LST-1. Conditions: both partners purified.
The target in data set [7] is T3, FBF-2 RBD+CT (Caenorhabditis elegans, UniProt Q09312 164-632).
T3 sequence: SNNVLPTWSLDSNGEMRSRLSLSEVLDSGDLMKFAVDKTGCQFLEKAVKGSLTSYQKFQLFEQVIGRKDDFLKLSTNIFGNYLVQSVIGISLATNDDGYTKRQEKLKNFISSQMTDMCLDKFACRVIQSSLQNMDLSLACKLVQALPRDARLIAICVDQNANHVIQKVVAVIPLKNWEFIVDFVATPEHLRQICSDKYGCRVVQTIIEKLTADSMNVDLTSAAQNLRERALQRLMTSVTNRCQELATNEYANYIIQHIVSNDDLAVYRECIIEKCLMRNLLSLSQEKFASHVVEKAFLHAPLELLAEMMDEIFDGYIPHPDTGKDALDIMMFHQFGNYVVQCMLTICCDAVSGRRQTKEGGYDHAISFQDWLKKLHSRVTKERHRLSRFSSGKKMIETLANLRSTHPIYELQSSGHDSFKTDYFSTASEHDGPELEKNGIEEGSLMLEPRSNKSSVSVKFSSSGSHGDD
As to the kind of experiment: EMSA; up to 5 uM FBF-2; EMSA: 5 nM RNA, 10 mM HEPES pH 7.4, 75 mM NaCl, 0.01% Tween 20, 0.1 mg/ml BSA, 0.1 mg/ml yeast tRNA, 2 mM DTT, 4 C overnight. Conditions: protein: recombinant; tags: His6-SUMO, removed by Ulp1; label: 3'-Cy5.

Data set [8] addresses T4, FBF-2 RBD;LST-1 19-98 S74C (Caenorhabditis elegans;Caenorhabditis …, UniProt Q09312;P91820 164-575;19-98, |S74C).
T4 sequence 1: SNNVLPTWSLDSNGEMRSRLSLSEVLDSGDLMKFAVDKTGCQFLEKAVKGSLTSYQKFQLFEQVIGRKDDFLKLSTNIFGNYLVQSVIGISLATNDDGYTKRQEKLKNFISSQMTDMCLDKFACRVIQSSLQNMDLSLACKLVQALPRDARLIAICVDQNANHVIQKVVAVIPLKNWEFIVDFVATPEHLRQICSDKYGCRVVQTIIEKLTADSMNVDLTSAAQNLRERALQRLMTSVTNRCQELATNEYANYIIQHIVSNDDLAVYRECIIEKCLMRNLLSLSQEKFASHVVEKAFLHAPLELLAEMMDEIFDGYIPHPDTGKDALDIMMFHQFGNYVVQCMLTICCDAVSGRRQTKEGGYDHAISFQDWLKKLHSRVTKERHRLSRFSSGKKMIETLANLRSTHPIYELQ
T4 sequence 2: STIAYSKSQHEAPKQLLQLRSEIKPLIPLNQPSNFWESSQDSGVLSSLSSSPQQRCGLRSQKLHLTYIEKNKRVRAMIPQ
As to the kind of experiment: FRET; 2 uM FBF-2 RBD; higher FRET than S26C; EMSA: 5 nM RNA, 10 mM HEPES pH 7.4, 75 mM NaCl, 0.01% Tween 20, 0.1 mg/ml BSA, 0.1 mg/ml yeast tRNA, 2 mM DTT, 4 C overnight. As to conditions: protein: recombinant;recombinant; tags: His-SUMO, removed by TEV;Cy5-maleimide on C74; chain copies: 2;1; label: 5'-Cy3.

Data set [9] addresses T5, FBF-2 RBD (Caenorhabditis elegans, UniProt Q09312 164-575).
T5 sequence: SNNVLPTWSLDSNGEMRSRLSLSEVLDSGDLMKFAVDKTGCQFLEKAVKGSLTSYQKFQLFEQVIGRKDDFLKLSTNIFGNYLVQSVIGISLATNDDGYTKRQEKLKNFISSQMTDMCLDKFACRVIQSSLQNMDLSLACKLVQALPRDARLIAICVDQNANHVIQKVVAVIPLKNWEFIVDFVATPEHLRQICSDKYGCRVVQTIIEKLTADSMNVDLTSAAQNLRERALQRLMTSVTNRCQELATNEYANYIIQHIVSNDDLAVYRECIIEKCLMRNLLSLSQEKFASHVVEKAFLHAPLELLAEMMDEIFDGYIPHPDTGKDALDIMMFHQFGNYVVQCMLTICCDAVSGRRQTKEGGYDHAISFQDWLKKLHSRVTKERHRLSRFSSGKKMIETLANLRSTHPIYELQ
Kind of data set: EMSA; apparent Kd, Hill fit; EMSA: 5 nM RNA, 10 mM HEPES pH 7.4, 75 mM NaCl, 0.01% Tween 20, 0.1 mg/ml BSA, 0.1 mg/ml yeast tRNA, 2 mM DTT, 4 C overnight. As to conditions: protein: recombinant; tags: His-SUMO, removed by TEV; label: 3'-Cy5.

Data set [10] concerns the target T3, FBF-2 RBD+CT. The data set is described as above. Conditions: protein: recombinant; tags: His6-SUMO, removed by Ulp1; label: 3'-Cy5.
Data set [11] has as its target T5, FBF-2 RBD. Kind of data set: X-ray crystallography; 2.2 A; EMSA: 5 nM RNA, 10 mM HEPES pH 7.4, 75 mM NaCl, 0.01% Tween 20, 0.1 mg/ml BSA, 0.1 mg/ml yeast tRNA, 2 mM DTT, 4 C overnight. Conditions: protein: recombinant; tags: His-SUMO, removed by TEV.

B1: LST-1 peptide (residues 19-98) spanning PIM-A and PIM-B (domain or fragment, C. elegans, UniProt P91820 19-98, looked up)
chain: STIAYSKSQHEAPKQLLQLRSEIKPLIPLNQPSNFWESSQDSGVLSSLSSSPQQRSGLRSQKLHLTYIEKNKRVRAMIPQ
notes: LST-1 (lateral signaling target 1), C. elegans, residues 19-98 of the N-terminal intrinsically disordered region; Codon-optimised synthetic cDNA in pSMT3; tag removed with Ulp1; also called LST-1^19–98; source: E. coli BL21-CodonPlus (DE3)-RIL, purified (Ni-NTA, heparin, Ni-NTA pass, Superdex 75)
In the case of B1, in data set [1], the “EMSA: RNA-binding affinity of FBF-2 RBD+CT for the 29-nt FBEa-FBEa* RNA with 10 µM LST-1 19-98 against without LST-1” value worked out at 4 fold. Besides, in [2], the Kd was 1100 nM and 1900 nM; the dH was -14.8 kcal/mol and -10.8 kcal/mol; the “stoichiometry N” value was 0.5 sites and 0.57 sites. In addition, in [3], the Kd was 480 nM and 520 nM; the dH was -33.2 kcal/mol and -37.5 kcal/mol; the “stoichiometry N” value stood at 0.46 sites.

B2: LST-1^19–98 from the GST fusion coexpressed with FBF-2 (domain or fragment, C. elegans, UniProt P91820 19-98, looked up)
chain: STIAYSKSQHEAPKQLLQLRSEIKPLIPLNQPSNFWESSQDSGVLSSLSSSPQQRSGLRSQKLHLTYIEKNKRVRAMIPQ
notes: LST-1, C. elegans, residues 19-98; GST removed with TEV protease; also called GST-LST-1^19–98; not shown: GST, N-terminal, cleaved
Consider B2, for which the “stoichiometry N” value in data set [4] and in [5] was 2 FBF-2 per LST-1 in each case.

B3: LST-1^19–98(A^m): K32A, L35A (domain or fragment, C. elegans, UniProt P91820 19-98, looked up)
chain: STIAYSKSQHEAPAQLAQLRSEIKPLIPLNQPSNFWESSQDSGVLSSLSSSPQQRSGLRSQKLHLTYIEKNKRVRAMIPQ
notes: LST-1, C. elegans, residues 19-98 with PIM-A mutated; PIM-B intact; also called LST-1 A^m; source: E. coli, purified by the same protocol as the wild-type LST-1 19-98
As for B3, in data set [2], the Kd was 3700 nM and 2800 nM; the dH is -11.4 kcal/mol and -11.5 kcal/mol; the “stoichiometry N” value was 1.02 sites and 0.98 sites. In [3], the Kd is 130 nM and 120 nM; the dH is -15.3 kcal/mol and -16.5 kcal/mol; the “stoichiometry N” value is 1.15 sites and 1.05 sites.

B4: LST-1^19–98 S74C labeled with Cy5 (domain or fragment, C. elegans, UniProt P91820 19-98, looked up)
chain: STIAYSKSQHEAPKQLLQLRSEIKPLIPLNQPSNFWESSQDSGVLSSLSSSPQQRCGLRSQKLHLTYIEKNKRVRAMIPQ
modifications: Cy5 maleimide dye on C74
notes: LST-1, C. elegans, residues 19-98 with a cysteine in place of S74, five residues upstream of PIM-B; Probably made as the wild-type LST-1 19-98 (His6-SUMO, cleaved); also called C74-labeled LST-1^19–98; source: purified; expression not described for this mutant
B4: in data set [6], the binding result is “binds”.

B5: LST-1^19–98(B^m): K80A, L83A, Y85A (domain or fragment, C. elegans, UniProt P91820 19-98, looked up)
chain: STIAYSKSQHEAPKQLLQLRSEIKPLIPLNQPSNFWESSQDSGVLSSLSSSPQQRSGLRSQALHATAIEKNKRVRAMIPQ
notes: LST-1, C. elegans, residues 19-98 with PIM-B mutated; PIM-A intact; also called LST-1 B^m; source: E. coli, purified by the same protocol as the wild-type LST-1 19-98
Take B5: in data set [2], the Kd was 24100 nM and 46200 nM; the dH is -11.1 kcal/mol and -11.5 kcal/mol; the “stoichiometry N” value is 1.06 sites and 0.89 sites. Also, in data set [3], the Kd is 1460 nM and 1540 nM; the dH is -12.1 kcal/mol and -12.5 kcal/mol; the “stoichiometry N” value is 0.83 sites and 0.86 sites.

B6: FBEam-FBEa*m (ssRNA)
RNA: AUCAACAGCCAUACAUCAACAUGCCAUUU
For B6, in data set [7], the binding result was “no binding”.

B7: gld-1 FBEa-FBEa* (FRET) (ssRNA)
RNA: AUCAUGUGCCAUACAUCAUGUUGCCAUUU
On to B7, for which the binding result in data set [8] is “binds”.

B8: FBEa-FBEa*m (ssRNA)
RNA: AUCAUGUGCCAUACAUCAACAUGCCAUUU
Take B8: the values for the Kd in [9] and in [10] were 145 ± 4 nM and 1190 ± 9 nM, respectively.

B9: gld-1 FBEa* 11-nt (crystal) (ssRNA)
RNA: CAUGUUGCCAU
B9: in data set [11], the binding result was “binds”.
